Measured values taken from US20230047413A1 (Janssen / Centocor, published 2023).
Non-standard residues stand in square brackets, D forms with d. *: point of attachment. Biotin = O=C1N[C@H]2[C@H](CS[C@H]2CCCCC(=O)*)N1; pT = C[C@@H](OP(=O)(O)O)[C@H](N)C(=O)O; pS = N[C@@H](COP(=O)(O)O)C(=O)O; dPEG4 = PEG4 moiety

Legend:
Peptide-4 = Peptide-4 (human, phosphoserine 210, phosphothreonine 217 (tau 2N4R numbering); SCBiot and dPEG4 at the N-terminus; amide at the C-terminus); assay: SPR ProteOn, peptide captured, Fab as analyte
Sequence of Peptide-4 (human, phosphoserine 210, phosphothreonine 217 (tau 2N4R numbering); SCBiot and dPEG4 at the N-terminus; amide at the C-terminus) (peptide, as listed by the source): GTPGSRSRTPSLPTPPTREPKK
Description: (§1) The binding affinity of PT3 Fab towards each of the fourteen tau phosphopeptides shown in Table 6 was assessed by surface plasmon resonance (SPR) using a Bio-Rad ProteOn XPR36. Peptides were synthesized by standard chemical methods (New England Peptide) with short-chain biotin and a PEG4 moiety at the N-terminus. Biotinylated peptide was captured on a neutravidin-coated NLC biosensor chip and PT3 Fab was flowed over the surface to measure kinetic parameters.
(§2) All experiments were performed at 25° C. using phosphate buffered saline, pH 7.4, 0.005% Tween 20 (PBST) as both running buffer and sample dilution buffer. Prior to running samples, the NLC chip was conditioned by running PBST over the chip surface for 1 h. Approximately 5-10 RU of peptide was captured on the chip surface by diluting peptide to 10 ng/mL in PBST and injecting over the flow channels at 30 μL/min for 100 s. Serial dilutions of PT3 Fab (1.1-90 nM) were analyzed and, with the exception of Peptide-8, each concentration was measured in duplicate. After capture of peptides, the antibody titration was injected at 60 μL/min for 3 minutes (association phase), followed by 300 s of buffer only (dissociation phase).
(§3) The data were double referenced by subtraction of the interspot response and the curves generated by the buffer-only injection. The chip surface was regenerated using a single injection of 0.85% phosphoric acid at 30 μL/min for 100 s contact time, followed by four injections of running buffer before the next antibody titration injection. The data processing and kinetic analysis were done using the instrument software. The data were analyzed using a simple Langmuir 1:1 binding model.

Peptide-5 [1] = biological target: T1, Peptide-5 (human, phosphoserine 210, phosphoserine 214, phosphothreonine 217 (tau 2N4R numbering); SCBiot and dPEG4 at the N-terminus; amide at the C-terminus); assay: SPR ProteOn, peptide captured, Fab as analyte
Description: as §1, §2, §3

Peptide-3 = Peptide-3 (human, phosphoserine 214, phosphothreonine 217 (tau 2N4R numbering); SCBiot and dPEG4 at the N-terminus; amide at the C-terminus); assay: SPR ProteOn, peptide captured, Fab as analyte
Description: as §1, §2, §3

Peptide-11 = biological target: T2, Peptide-11 (human); assay: SPR ProteOn, peptide captured, Fab as analyte
T2 peptide: {Biotin-dPEG4}-SPGTPG[pS]RSR[pT]P[pS]LPTPPT-NH2
Description: as §1, §2, §3

Peptide-7 = Peptide-7 (human, phosphothreonine 212, phosphoserine 214 (tau 2N4R numbering); SCBiot and dPEG4 at the N-terminus; amide at the C-terminus); assay: SPR ProteOn, peptide captured, Fab as analyte
Description: as §1, §2, §3

Peptide-2 [2] = biological target: T3, Peptide-2 (human, phosphothreonine 212, phosphothreonine 217 (tau 2N4R numbering); short chain biotin (SCBiot) and dPEG4 at the N-terminus; amide at the C-terminus); assay: SPR ProteOn, peptide captured, Fab as analyte
T3 construct: also called pT212/pT217-tau peptide (Peptide-2)
Description: as §1, §2, §3

Peptide-6 [3] = biological target: T4, Peptide-6 (human, phosphothreonine 217 (tau 2N4R numbering); SCBiot and dPEG4 at the N-terminus; amide at the C-terminus); assay: SPR ProteOn, peptide captured, Fab as analyte
Description: as §1, §2, §3

Peptide-1 = biological target: T5, Peptide-1 (human, phosphothreonine 212, phosphoserine 214, phosphothreonine 217 (tau 2N4R numbering); short chain biotin (SCBiot) and dPEG4 at the N-terminus; amide at the C-terminus); assay: SPR ProteOn, peptide captured, Fab as analyte
T5 construct: also called tau peptide phosphorylated at T212/S214/T217
Description: as §1, §2, §3

Peptide-5 [4] = biological target: T1, Peptide-5; assay: SPR ProteOn, peptide captured, Fab as analyte; Peptide-5, phosphorylated at 210/214/217
Description: as §1, §2
(§4) The data were double referenced by subtraction of the interspot response and the curves generated by the buffer-only injection. […] The data were analyzed using a simple Langmuir 1:1 binding model.

Peptide-6 [5] = biological target: T4, Peptide-6; assay: SPR ProteOn, peptide captured, Fab as analyte; range of n=2; Peptide-6 (pT217 only); upper end of n=2 range
Description: as §1, §2, §4

Peptide-5 [6] = biological target: T1, Peptide-5; assay: SPR ProteOn, peptide captured, Fab as analyte; range of n=2; Peptide-5 (pS210/pS214/pT217); upper end of n=2 range
Description: as §1, §2, §4

Peptide-2 [7] = biological target: T3, Peptide-2; assay: SPR ProteOn, peptide captured, Fab as analyte; range of n=2; Peptide-2 (pT212/pT217); Table 12 run; upper end of n=2 range
Description: A subset of HFA-PT3 monoclonal antibody variants, selected based on biophysical characterization and ELISA binding to PHF, were analyzed by Surface Plasmon Resonance (SPR) with a ProteOn XPR36 for binding to the following phosphopeptides: pT212/pT217-tau peptide (Peptide-2, SEQ ID NO: 48) and pT212-tau peptide (Peptide-8, SEQ ID NO: 54). All experiments were performed at 25° C. using PBST, pH 7.4, (Bio-Rad Cat#176-2720) as both running buffer and sample dilution buffer.
Fab/peptide binding. Biotinylated peptide was captured on a neutravidin-coated NLC biosensor chip pre-conditioned with PBST, and Fab was flowed over the surface to measure kinetic parameters. Approximately 5-10 RU of peptide was captured on the chip surface by diluting peptide to 10 ng/mL in PBST and injecting over the flow channels at 30 μL/min for 100 s. Serial dilutions of PT3 Fab (1.1 nM to 90 nM) were injected at 60 μL/min for 3 minutes (association phase), followed by 300 s of buffer only (dissociation phase).
Data were double referenced by subtraction of the interspot response, and the curves generated by the buffer only injection. The chip surface was regenerated with 0.85% phosphoric acid, followed by PBST injection before the next antibody titration injection. Data processing and analysis were performed using instrument software. The data were fit using a simple Langmuir 1:1 binding model.

koff (Peptide-4): 0.00627 s⁻¹
kon (Peptide-4): 968000 M⁻¹ s⁻¹
koff (Peptide-5 [1]): 0.00584 s⁻¹
kon (Peptide-5 [1]): 704000 M⁻¹ s⁻¹
koff (Peptide-3): 0.00547 s⁻¹
kon (Peptide-3): 1.04e+06 M⁻¹ s⁻¹
binding result (Peptide-11): no binding (tested: 1.1-90 nM)
koff (Peptide-7): 0.00555 s⁻¹
kon (Peptide-7): 422000 M⁻¹ s⁻¹
koff (Peptide-2 [2]): 0.000168 s⁻¹
kon (Peptide-2 [2]): 764000 M⁻¹ s⁻¹
koff (Peptide-6 [3]): 0.00616 s⁻¹
kon (Peptide-6 [3]): 541000 M⁻¹ s⁻¹
koff (Peptide-1): 0.00028 s⁻¹
kon (Peptide-1): 1.27e+06 M⁻¹ s⁻¹
Kd (Peptide-5 [4]): 8.7 nM
Kd (Peptide-6 [5]): 10.9 to 11.9 nM
Kd (Peptide-5 [6]): 6.6 to 10.8 nM
Kd (Peptide-2 [7]): 0.0738 to 0.101 nM
B1: PT3 Fab (B187) (Fab, V domains shown)
VH: EVKLVESGGDLVKPGGSLKLSCAASGFTFSSYAMSWVRQNPEKRLEWVASISKGGNTYYPNSVKGRFTISRDNARNILYLQMSSLRSEDTALYYCARGWGDYGWFAYWGQVTLVTVSA
VL: DIKMTQSPSSMYASLGERVTITCKASQDINRYLNWFQQKPGKSPKTLIYRANRLLDGVPSRFSGSGSGQDYSLTISSLDYEDMGIYYCLQYDEFPLTFGDGTKLELK
notes: Chimeric Fab: mouse variable regions, human IgG1/kappa constant region, 6xHis tag at the C-terminus of the heavy chain; also called mouse parental Fab of PT3
